Measured values from patent US20110300138A1 (published 2011).

Target: human TSHR (thyroid stimulating hormone receptor), full length, expressed in transfected CHO cells (human) (UniProt P16473)
Assay: cell-based or functional assay

% Inhibition of K1-18 IgG stimulation; 10 ng/mL K1-18 IgG + 0.001 µg/mL 5C9 IgG: 19% | % Inhibition of K1-18 IgG stimulation; 10 ng/mL K1-18 IgG + 0.01 µg/mL 5C9 IgG: 0% | % Inhibition of K1-18 IgG stimulation; 10 ng/mL K1-18 IgG + 0.1 µg/mL 5C9 IgG: 91% | % Inhibition of K1-18 IgG stimulation; 10 ng/mL K1-18 IgG + 0.5 µg/mL 5C9 IgG: 99% | % Inhibition of K1-18 IgG stimulation; 10 ng/mL K1-18 IgG + 1 µg/mL 5C9 IgG: 98% | % Inhibition of K1-18 IgG stimulation; 10 ng/mL K1-18 IgG + 5 µg/mL 5C9 IgG: 97% | % Inhibition of K1-18 IgG stimulation; 10 ng/mL K1-18 IgG + 10 µg/mL 5C9 IgG: 97% | % Inhibition of K1-18 IgG stimulation; 10 ng/mL K1-18 IgG + 50 µg/mL 5C9 IgG: 100% | % Inhibition of K1-18 IgG stimulation; 10 ng/mL K1-18 IgG + 100 µg/mL 5C9 IgG: 100% | % Inhibition of K1-18 stimulation; 10 ng/mL K1-18 + 0.001 µg/mL 5C9 IgG: 0% | % Inhibition of K1-18 stimulation; 10 ng/mL K1-18 + 0.01 µg/mL 5C9 IgG: 25% | % Inhibition of K1-18 stimulation; 10 ng/mL K1-18 + 0.1 µg/mL 5C9 IgG: 99% | % Inhibition of K1-18 stimulation; 10 ng/mL K1-18 + 1 µg/mL 5C9 IgG: 99.4% | % Inhibition of K1-18 stimulation; 10 ng/mL K1-18 + 10 µg/mL 5C9 IgG: 99.6% | % Inhibition of K1-18 stimulation; 10 ng/mL K1-18 + 100 µg/mL 5C9 IgG: 98.7%
B1: 5C9 IgG (antibody, from another filing, V domains shown)
VH: EVQLVESGGGLIQPGGSLRLSCAASGFTVSSNYMSWVRQAPGKGLEWVSVTYSGGSTSYADSVKGRFTISRDNSKNTLYLQMNSLRAEDTAVYYCARGGRYCSSISCYARSGCDYWGQGTLVTVSS
VL: AIQMTQSPSSLSASVGDRVTITCRASQSISNYLNWYQQKPGKAPKLLIYAASSLQSGVPSRFSGSGSGTDFTLTISSLQPEDFATYYCQQSYSSPSTTFGQGTKLEIK
